Measured values reported in patent US20240336672A1.
Changes are numbered by the printed parent chain.

B1: Cv2.1353 (recombinant human IgG1) (antibody)
heavy: EVQLVESGGGLVQPGGSLRLSCAASGVTVSSNYMNWVRQAPGKGLEWVSVIYSGGSTFYADSVKGRFIISRDNSKNTLYLQMNSLKTEDTAVYYCARDLGPMGFDIWGQGTMVTVSSASTKGPSVFPLAPSSKSTSGGTAALGCLVKDYFPEPVTVSWNSGALTSGVHTFPAVLQSSGLYSLSSVVTVPSSSLGTQTYICNVNHKPSNTKVDKKVEPKSCDKTHTCPPCPAPELLGGPSVFLFPPKPKDTLMISRTPEVTCVVVDVSHEDPEVKFNWYVDGVEVHNAKTKPREEQYNSTYRVVSVLTVLHQDWLNGKEYKCKVSNKALPAPIEKTISKAKQPREPQVYTLPPSRDELTKNQVSLTCLVKGFYPSDIAVEWESNGQPENNYKTTPPVLDSDGSFFLYSKLTVDKSRWQQGNVFSCSVMHEALHNHYTQKSLSLSPGK
light: DIQMTQSPSFLSASVGDRVTITCRASQGISSYLAWYQQKPGKAPKLLIYAASTLQSGVPSRFSGSGSGTEFTLTISSLQPEDFATYYCQQLNSDPPVTFGPGTKVDIKRTVAAPSVFIFPPSDEQLKSGTASVVCLLNNFYPREAKVQWKVDNALQSGNSQESVTEQDSKDSTYSLSSTLTLSKADYEKHKVYACEVTHQGLSSPVTKSFNRGEC
B2: COV2-2130 (antibody, V domains shown)
VH: EVQLVESGGGLVKPGGSLRLSCAASGFTFRDVWMSWVRQAPGKGLEWVGRIKSKIDGGTTDYAAPVKGRFTISRDDSKNTLYLQMNSLKTEDTAVYYCTTAGSYYYDTVGPGLPEGKFDYWGQGTLVTVSS
VL: not shown
B3: Cilgavimab (antibody, V domains shown)
VH: B2 VH
VL: not shown
B4: ADG-2 (antibody, V domains shown)
VH: EVQLVESGGGLVKPGGSLRLSCAASGFTFSSYYMNWVRQAPGKGLEWVSSISEDGYSTYYPDSLKGRFTISRDSAKNSLYLQMNSLRADDTAVYYCARDFSGHTAWAGTGFEYWGQGTLVTVSS
VL: QSVLTQPPSVSGAPGQRITISCTGSSSNIGAGYDVHWYQQLPGTAPKLLIYGSSSRNSGVPDRFSGSKSGTSASLAITGLQAEDEADYYCQSYDSSLSVLYTFGTGTKVTVL
B5: Adintrevimab (antibody, V domains shown)
VH: B4 VH
VL: B4 VL
B6: Cv2.3194 (recombinant human IgG1) (antibody)
heavy: EVQLVESGGGLIQPGGSLRLSCAASGITVTSNYMSWVRQAPGKGLEWVSVIYPGGSTFYADSVKGRFTISRDNSKNTLYLQMNSLRAEDTAVYYCARDLVVYGMDVWGQGTTVTVSSASTKGPSVFPLAPSSKSTSGGTAALGCLVKDYFPEPVTVSWNSGALTSGVHTFPAVLQSSGLYSLSSVVTVPSSSLGTQTYICNVNHKPSNTKVDKKVEPKSCDKTHTCPPCPAPELLGGPSVFLFPPKPKDTLMISRTPEVTCVVVDVSHEDPEVKFNWYVDGVEVHNAKTKPREEQYNSTYRVVSVLTVLHQDWLNGKEYKCKVSNKALPAPIEKTISKAKQPREPQVYTLPPSRDELTKNQVSLTCLVKGFYPSDIAVEWESNGQPENNYKTTPPVLDSDGSFFLYSKLTVDKSRWQQGNVFSCSVMHEALHNHYTQKSLSLSPGK
light: EIVLTQSPGTLSLSPGERATLSCRASQSVSSSYLAWYQQKPGQAPRLLIYGASSRATGIPGRFSGSGSGTDFTLTISRLEPEDFAIYYCQQGVTFGGGTKVEIKRTVAAPSVFIFPPSDEQLKSGTASVVCLLNNFYPREAKVQWKVDNALQSGNSQESVTEQDSKDSTYSLSSTLTLSKADYEKHKVYACEVTHQGLSSPVTKSFNRGEC
B7: Cv2.3235 (recombinant human IgG1) (antibody)
heavy: B6 heavy with I27F, T30S, S31R, P53S, L99G, V100D, V101Y
light: DIQMTQSPSFLSASVGDRVTITCRASQGISSFLAWYQQKPGKAPKLLIYGASTLQSGVTSRFSGSGSGTEFTLTISSLQPEDFATYYCQRLDSYPPITFGQGTRLEIKRTVAAPSVFIFPPSDEQLKSGTASVVCLLNNFYPREAKVQWKVDNALQSGNSQESVTEQDSKDSTYSLSSTLTLSKADYEKHKVYACEVTHQGLSSPVTKSFNRGEC
B8: Cv2.5213 (recombinant human IgG1) (antibody)
heavy: B6 heavy with I27F, T30S, V50L, P53S, F58Y, V100N, V101Y, T111A
light: not shown

What was measured:
Details in all cases: remark: other sources report otherwise
[1] = target: T1, SARS-CoV-2 Spike (S) protein on cells (S-Flow assay) (SARS-CoV-2), P0DTC2; test: flow cytometry, transfected cells
[2] = target: SARS-CoV-2 RBD domain, Wuhan (SARS-CoV-2); test: RBD-ACE2 competition ELISA; parameters: unit not given beside the values
[3] = target: SARS-CoV-2 RBD domain, Wuhan (SARS-CoV-2); test: ELISA, coated antigen
[4] = target: CoV-MERS Spike ectodomain (MERS-CoV), K9N5Q8; test: ELISA, coated antigen
[5] = target: SARS-CoV-1 Spike ectodomain (SARS-CoV-1), P59594; test: ELISA, coated antigen
[6] = target: T1, SARS-CoV-2 Spike (S) protein on cells …; test: S-Flow flow cytometry, spike-expressing cells
[7] = target: SARS-CoV-2 RBD domain, Wuhan (SARS-CoV-2); test: RBD-ACE2 competition ELISA; parameters: unit not given beside the values; remark: listed apart in the source
[8] = target: SARS-CoV-2 RBD domain, Wuhan (SARS-CoV-2); test: ELISA; parameters: unit not given beside the values
[9] = target: SARS-CoV-2 RBD domain, Wuhan (SARS-CoV-2); test: SPR (Biacore), antibody immobilised
[10] = target: SARS-CoV-2 RBD domain, Wuhan (SARS-CoV-2); test: competition ELISA vs bio-Cv2.1169
[11] = target: SARS-CoV-2 RBD domain, Wuhan (SARS-CoV-2); test: SPR (Biacore), antibody coupled to CM5 chip, viral protein as analyte
[12] = target: SARS-CoV-2 RBD domain, Wuhan (SARS-CoV-2); test: ELISA; parameters: unit not given beside the values; remark: listed apart in the source
[13] = target: SARS-CoV-2 RBD domain, Wuhan (SARS-CoV-2); test: competition ELISA vs bio-Cv2.5213
[14] = target: SARS-CoV-2 RBD domain, Wuhan (SARS-CoV-2); test: competition ELISA vs bio-Cv2.3194
[15] = target: SARS-CoV-2 RBD domain, Wuhan (SARS-CoV-2); test: competition ELISA vs bio-Cv2.3235
[16] = target: SARS-CoV-2 RBD domain, Wuhan (SARS-CoV-2); test: competition ELISA vs bio-Cv2.1353
[17] = target: SARS-CoV-2 RBD domain, Wuhan (SARS-CoV-2); test: ELISA; parameters: unit not given beside the values; remark: listed apart in the source
[18] = target: SARS-CoV-2 RBD domain, Wuhan (SARS-CoV-2); test: RBD/ACE2 blocking ELISA
[19] = target: SARS-CoV-2 RBD domain, Wuhan (SARS-CoV-2); test: ELISA
[20] = target: T1, SARS-CoV-2 Spike (S) protein on cells …; test: flow cytometry (Mock 2.5)
[21] = target: SARS-CoV-2 RBD domain, Wuhan (SARS-CoV-2); test: competition ELISA, biotinylated RBD to immobilized ACE2 ectodomain
[22] = target: SARS-CoV-2 RBD domain, Wuhan (SARS-CoV-2); test: SPR (Biacore), IgG immobilized, viral protein as analyte

Row | Binder | log10 ΔgMFI [1] | AUC (RBD block.) [2] | ELISA OD [3] [OD] | ELISA OD [4] [OD] | ELISA OD [5] [OD] | S-Flow (%) [6] [%] | S-Flow (MFI) [6] [MFI] | AUC (RBD block.) [7] | Kd [9] [nM] | % inhibition (competition) [10] | AUC (RBD bind.) [12] | % inhibition (competition) [13] | % inhibition (competition) [14] | % inhibition (competition) [15] | % inhibition (competition) [16] | AUC [17] | % binding inhibition [18] [%] | OD405nm [19] | further results
1 | B1 | 4 | 315 | 3.5 | 0.1 | 0.1 | 95 | 270000 | 158 | 2.24 | 62 | 12 | 78 | 74 | 80 | 74 | – | – | – | AUC (RBD bind.) [8]: 13; Kd [11]: < 1 pM
2 | B2 | – | – | – | – | – | – | – | – | – | – | – | – | – | – | – | 3 | 96 | – | –
3 | B3 | – | – | – | – | – | – | – | – | – | – | – | – | – | – | – | – | – | 3.2 | –
4 | B4 | – | – | – | – | – | – | – | – | – | – | – | – | – | – | – | 3 | 94 | – | –
5 | B5 | – | – | – | – | – | – | – | – | – | – | – | – | – | – | – | – | – | 3.3 | log10 ΔgMFI [20]: 4.4
6 | B6 | 4 | 365 | 3.6 | 0.1 | 0.1 | 94 | 260000 | 183 | < 0.1 | 56 | 12 | 70 | 72 | 74 | 65 | 3 | 96 | 3.4 | IC50 [21]: 0.099 µg/mL; IC90 [21]: 185 ng/mL; Kd [22]: 6.27 pM; koff [22]: 3.06e-06 s⁻¹; kon [22]: 487000 M⁻¹ s⁻¹; AUC (RBD bind.) [8]: 13; log10 ΔgMFI [20]: 4.4; Kd [11]: < 1 pM
7 | B7 | 4 | 229 | 3.9 | 0.2 | 0.2 | 97 | 170000 | 114 | 280 | 14 | 13 | 47 | 37 | 65 | 37 | – | – | – | –
8 | B8 | 4 | 283 | 3.5 | 0.1 | 0.1 | 95 | 270000 | 141 | 162 | 43 | 13 | 77 | 61 | 80 | 67 | – | – | – | –
